Results: PMC9482650, “Quantitative fragmentomics allow affinity mapping of interactomes” (Nature Communications, 2022)

T1: FRMPD1, Q5SYB0
T1 sequence (Q5SYB0 52-145, limits assumed, looked up): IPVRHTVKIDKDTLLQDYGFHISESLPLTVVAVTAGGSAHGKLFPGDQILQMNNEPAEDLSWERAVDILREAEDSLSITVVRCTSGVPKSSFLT

T2: LIN7A, O14910
T2 sequence (O14910 103-200, limits assumed, looked up): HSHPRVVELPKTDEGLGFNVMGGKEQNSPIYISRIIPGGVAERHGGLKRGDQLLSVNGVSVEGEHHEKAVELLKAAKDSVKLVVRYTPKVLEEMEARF

T3: PCLO, Q9Y6V0
T3 sequence (Q9Y6V0 4491-4600, limits assumed, looked up): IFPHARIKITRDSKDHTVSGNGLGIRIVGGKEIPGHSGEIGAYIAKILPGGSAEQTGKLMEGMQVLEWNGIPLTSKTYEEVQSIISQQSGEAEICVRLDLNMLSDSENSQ

T4: PDZRN3_1, Q9UPQ7
T4 sequence (Q9UPQ7 244-349, limits assumed, looked up): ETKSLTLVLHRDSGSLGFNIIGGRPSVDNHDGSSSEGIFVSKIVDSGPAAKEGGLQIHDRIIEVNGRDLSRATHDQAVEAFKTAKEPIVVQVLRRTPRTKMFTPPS

T5: PTPN13_1, Q12923
T5 sequence (Q12923 1088-1188, limits assumed, looked up): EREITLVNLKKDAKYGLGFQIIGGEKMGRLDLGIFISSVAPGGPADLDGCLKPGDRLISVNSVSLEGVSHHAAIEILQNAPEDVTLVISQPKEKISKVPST

T6: ARHGAP21, Q5T5U3
T6 sequence (Q5T5U3 45-169, limits assumed, looked up): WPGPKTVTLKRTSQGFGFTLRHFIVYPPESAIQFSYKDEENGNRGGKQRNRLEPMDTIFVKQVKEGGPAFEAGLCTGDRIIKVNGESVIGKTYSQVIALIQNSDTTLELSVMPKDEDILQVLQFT

T7: SYNJ2BP, P57105
T7 sequence (P57105 8-110, limits assumed, looked up): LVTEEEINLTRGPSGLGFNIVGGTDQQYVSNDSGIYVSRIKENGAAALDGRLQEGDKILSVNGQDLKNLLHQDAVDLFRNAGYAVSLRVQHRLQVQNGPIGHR

T8: MPP7, Q5T2T1
T8 sequence (Q5T2T1 134-230, limits assumed, looked up): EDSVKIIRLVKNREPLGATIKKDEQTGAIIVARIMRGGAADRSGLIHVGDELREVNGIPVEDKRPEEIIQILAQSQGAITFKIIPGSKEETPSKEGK

T9: MPP6, Q9NZW5
T9 sequence (Q9NZW5 125-219, limits assumed, looked up): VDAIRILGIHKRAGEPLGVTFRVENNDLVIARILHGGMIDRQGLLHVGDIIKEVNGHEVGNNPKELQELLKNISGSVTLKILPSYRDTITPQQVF

T10: GRIP1_7, Q9Y3R0
T10 sequence (Q9Y3R0 999-1096, limits assumed, looked up): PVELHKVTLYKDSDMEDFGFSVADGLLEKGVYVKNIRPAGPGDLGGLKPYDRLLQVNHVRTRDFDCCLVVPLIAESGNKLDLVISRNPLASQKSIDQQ

T11: GRIP1_5, Q9Y3R0
T11 sequence (Q9Y3R0 568-668, limits assumed, looked up): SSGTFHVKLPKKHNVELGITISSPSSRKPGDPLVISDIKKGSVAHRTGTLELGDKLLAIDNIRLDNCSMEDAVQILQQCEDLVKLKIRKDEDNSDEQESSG


Experiments:
Experiment in all cases: holdup assay
Parameters in all cases: key: below the threshold = too weak to quantify, mostly under pKd 3.1 to 4
Conditions in all cases: plain residues with an end cap or a label only (N-terminal biotin on a linker: ado-ado)
FRMPD1, Q5SYB0 = target: T1, FRMPD1, Q5SYB0
LIN7A, O14910 = target: T2, LIN7A, O14910
Inadl_4, Q8NI35 = target: Inadl_4, Q8NI35
Chain of Inadl_4, Q8NI35 (Q8NI35 547-651): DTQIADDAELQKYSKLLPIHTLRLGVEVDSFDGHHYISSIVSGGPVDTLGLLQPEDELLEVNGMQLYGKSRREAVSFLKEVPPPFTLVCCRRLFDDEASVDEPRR

PCLO, Q9Y6V0 = target: T3, PCLO, Q9Y6V0
MAST2, Q6P0Q8 = target: MAST2, Q6P0Q8
Chain of MAST2, Q6P0Q8 (Q6P0Q8 1099-1202): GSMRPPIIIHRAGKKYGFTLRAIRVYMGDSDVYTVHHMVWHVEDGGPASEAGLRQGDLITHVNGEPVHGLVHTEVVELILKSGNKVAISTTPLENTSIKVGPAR

SCRIB_2, Q14160 = target: SCRIB_2, Q14160
Chain of SCRIB_2, Q14160 (Q14160 857-960): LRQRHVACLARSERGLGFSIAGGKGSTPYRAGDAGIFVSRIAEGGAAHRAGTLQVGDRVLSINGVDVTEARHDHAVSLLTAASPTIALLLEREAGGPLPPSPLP

MAGI2_5, Q86UL8 = target: MAGI2_5, Q86UL8
Chain of MAGI2_5, Q86UL8 (Q86UL8 915-1017): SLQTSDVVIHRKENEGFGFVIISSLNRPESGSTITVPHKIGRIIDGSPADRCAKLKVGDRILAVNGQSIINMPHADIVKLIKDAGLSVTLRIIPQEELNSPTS

DLG4_1, P78352 = target: DLG4_1, P78352
Chain of DLG4_1, P78352 (P78352 62-152): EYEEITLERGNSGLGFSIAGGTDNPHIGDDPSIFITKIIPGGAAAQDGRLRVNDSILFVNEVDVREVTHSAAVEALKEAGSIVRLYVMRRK

MAGI1_2, Q96QZ7 = target: MAGI1_2, Q96QZ7
Chain of MAGI1_2, Q96QZ7 (Q96QZ7 456-580): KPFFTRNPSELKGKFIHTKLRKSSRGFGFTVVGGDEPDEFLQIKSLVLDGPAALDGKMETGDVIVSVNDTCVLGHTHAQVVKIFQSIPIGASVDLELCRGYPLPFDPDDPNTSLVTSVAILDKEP

GRID2IP_1, A4D2P6 = target: GRID2IP_1, A4D2P6
Chain of GRID2IP_1, A4D2P6 (A4D2P6 1-87): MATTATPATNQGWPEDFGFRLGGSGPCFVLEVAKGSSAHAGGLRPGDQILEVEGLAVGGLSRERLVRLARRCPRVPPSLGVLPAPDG

PDZRN3_1, Q9UPQ7 = target: T4, PDZRN3_1, Q9UPQ7
PTPN13_1, Q12923 = target: T5, PTPN13_1, Q12923
ARHGAP21, Q5T5U3 = target: T6, ARHGAP21, Q5T5U3
FRMPD4, Q14CM0 = target: FRMPD4, Q14CM0
Chain of FRMPD4, Q14CM0 (Q14CM0 67-160): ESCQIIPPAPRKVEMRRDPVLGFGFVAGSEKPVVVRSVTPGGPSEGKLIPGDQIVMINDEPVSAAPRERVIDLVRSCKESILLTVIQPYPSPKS

SYNJ2BP, P57105 = target: T7, SYNJ2BP, P57105
GRASP, Q7Z6J2 = target: GRASP, Q7Z6J2
Chain of GRASP, Q7Z6J2 (Q7Z6J2 96-193): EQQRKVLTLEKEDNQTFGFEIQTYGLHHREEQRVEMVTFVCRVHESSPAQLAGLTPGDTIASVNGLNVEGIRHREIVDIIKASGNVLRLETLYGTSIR

GRIP2_3, Q9C0E4 = target: GRIP2_3, Q9C0E4
Chain of GRIP2_3, Q9C0E4 (Q9C0E4 238-339): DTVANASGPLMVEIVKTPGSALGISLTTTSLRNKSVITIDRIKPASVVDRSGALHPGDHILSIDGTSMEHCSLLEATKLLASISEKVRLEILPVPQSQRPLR

MPP7, Q5T2T1 = target: T8, MPP7, Q5T2T1
MPP6, Q9NZW5 = target: T9, MPP6, Q9NZW5
GRIP1_7, Q9Y3R0 = target: T10, GRIP1_7, Q9Y3R0
GRIP1_5, Q9Y3R0 = target: T11, GRIP1_5, Q9Y3R0
MAGI2_3, Q86UL8 = target: MAGI2_3, Q86UL8
Chain of MAGI2_3, Q86UL8 (Q86UL8 600-682): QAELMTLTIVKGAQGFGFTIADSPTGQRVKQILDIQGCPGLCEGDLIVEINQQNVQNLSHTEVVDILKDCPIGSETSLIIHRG

Inadl_3, Q8NI35 = target: Inadl_3, Q8NI35
Chain of Inadl_3, Q8NI35 (Q8NI35 359-469): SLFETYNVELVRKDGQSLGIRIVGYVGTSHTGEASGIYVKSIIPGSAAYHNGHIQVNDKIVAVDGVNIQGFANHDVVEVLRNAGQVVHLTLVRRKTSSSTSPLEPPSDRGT

NHERF4_2, Q86UT5 = target: NHERF4_2, Q86UT5
Chain of NHERF4_2, Q86UT5 (Q86UT5 220-308): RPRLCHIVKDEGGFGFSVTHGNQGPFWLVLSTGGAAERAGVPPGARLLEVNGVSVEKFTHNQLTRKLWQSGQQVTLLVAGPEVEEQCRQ

GRIP2_6, Q9C0E4 = target: GRIP2_6, Q9C0E4
Chain of GRIP2_6, Q9C0E4 (Q9C0E4 648-740): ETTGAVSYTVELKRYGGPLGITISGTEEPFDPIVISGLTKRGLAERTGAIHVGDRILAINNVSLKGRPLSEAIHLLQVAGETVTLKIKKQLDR

MAGI1_1, Q96QZ7 = target: MAGI1_1, Q96QZ7
Chain of MAGI1_1, Q96QZ7 (Q96QZ7 1-106): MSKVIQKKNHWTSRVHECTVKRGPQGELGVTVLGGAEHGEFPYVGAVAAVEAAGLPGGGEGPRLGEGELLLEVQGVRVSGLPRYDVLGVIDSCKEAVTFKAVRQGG

HTRA1, Q92743 = target: HTRA1, Q92743
Chain of HTRA1, Q92743 (Q92743 360-477): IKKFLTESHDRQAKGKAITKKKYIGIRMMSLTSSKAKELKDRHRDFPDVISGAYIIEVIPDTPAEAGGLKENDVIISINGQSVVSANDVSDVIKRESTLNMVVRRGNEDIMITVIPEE

| Binder | pKd (FRMPD1, Q5SYB0) | pKd (LIN7A, O14910) | pKd (Inadl_4, Q8NI35) | pKd (PCLO, Q9Y6V0) | pKd (MAST2, Q6P0Q8) | pKd (SCRIB_2, Q14160) | pKd (MAGI2_5, Q86UL8) | pKd (DLG4_1, P78352) | pKd (MAGI1_2, Q96QZ7) | pKd (GRID2IP_1, A4D2P6) | pKd (PDZRN3_1, Q9UPQ7) | pKd (PTPN13_1, Q12923) | pKd (ARHGAP21, Q5T5U3) | pKd (FRMPD4, Q14CM0) | pKd (SYNJ2BP, P57105) | pKd (GRASP, Q7Z6J2) | pKd (GRIP2_3, Q9C0E4) | pKd (MPP7, Q5T2T1) | pKd (MPP6, Q9NZW5) | pKd (GRIP1_7, Q9Y3R0) | further results |
| --- | --- | --- | --- | --- | --- | --- | --- | --- | --- | --- | --- | --- | --- | --- | --- | --- | --- | --- | --- | --- | --- |
| DDPSTAETVL [ABCA7, Q8IZY2] | below the threshold | below the threshold | below the threshold | below the threshold | 5.64 | below the threshold | 4.27 | below the threshold | below the threshold | below the threshold | 4.09 | below the threshold | 3.8 | 4.1 | 4.16 | below the threshold | below the threshold | below the threshold | below the threshold | below the threshold | pKd (GRIP1_5, Q9Y3R0): below the threshold; pKd (MAGI2_3, Q86UL8): 3.71; pKd (Inadl_3, Q8NI35): 3.73; pKd (NHERF4_2, Q86UT5): below the threshold; pKd (GRIP2_6, Q9C0E4): below the threshold; pKd (MAGI1_1, Q96QZ7): below the threshold; pKd (HTRA1, Q92743): 4.64 |
| LSEFKAMDSI [CTNNA1, P35221] | below the threshold | below the threshold | below the threshold | below the threshold | below the threshold | below the threshold | below the threshold | below the threshold | below the threshold | below the threshold | below the threshold | below the threshold | 4.01 | below the threshold | below the threshold | below the threshold | below the threshold | below the threshold | below the threshold | below the threshold | pKd (GRIP1_5, Q9Y3R0): below the threshold; pKd (MAGI2_3, Q86UL8): below the threshold; pKd (Inadl_3, Q8NI35): below the threshold; pKd (NHERF4_2, Q86UT5): below the threshold; pKd (GRIP2_6, Q9C0E4): below the threshold; pKd (MAGI1_1, Q96QZ7): below the threshold; pKd (HTRA1, Q92743): below the threshold |

Now from value to binder, other results behind:

| pKd (FRMPD1, Q5SYB0) | pKd (LIN7A, O14910) | pKd (Inadl_4, Q8NI35) | pKd (PCLO, Q9Y6V0) | pKd (MAST2, Q6P0Q8) | pKd (SCRIB_2, Q14160) | pKd (MAGI2_5, Q86UL8) | pKd (DLG4_1, P78352) | pKd (MAGI1_2, Q96QZ7) | pKd (GRID2IP_1, A4D2P6) | pKd (PDZRN3_1, Q9UPQ7) | pKd (PTPN13_1, Q12923) | pKd (ARHGAP21, Q5T5U3) | pKd (FRMPD4, Q14CM0) | pKd (SYNJ2BP, P57105) | pKd (GRASP, Q7Z6J2) | pKd (GRIP2_3, Q9C0E4) | pKd (MPP7, Q5T2T1) | pKd (MPP6, Q9NZW5) | pKd (GRIP1_7, Q9Y3R0) | Binder | further results |
| --- | --- | --- | --- | --- | --- | --- | --- | --- | --- | --- | --- | --- | --- | --- | --- | --- | --- | --- | --- | --- | --- |
| below the threshold | below the threshold | below the threshold | below the threshold | 4.92 | below the threshold | 4.78 | 4.38 | 4.32 | below the threshold | 3.65 | below the threshold | 4.01 | below the threshold | 4.12 | 4.04 | below the threshold | below the threshold | below the threshold | below the threshold | QHKTQLQTLI [BPIFA2, Q96DR5] | pKd (GRIP1_5, Q9Y3R0): below the threshold; pKd (MAGI2_3, Q86UL8): below the threshold; pKd (Inadl_3, Q8NI35): 3.93; pKd (NHERF4_2, Q86UT5): below the threshold; pKd (GRIP2_6, Q9C0E4): below the threshold; pKd (MAGI1_1, Q96QZ7): 3.66; pKd (HTRA1, Q92743): 4.06 |
| below the threshold | below the threshold | below the threshold | below the threshold | below the threshold | below the threshold | below the threshold | below the threshold | below the threshold | below the threshold | below the threshold | below the threshold | 3.56 | below the threshold | 4.2 | 4.01 | below the threshold | below the threshold | below the threshold | below the threshold | HLRARKSEWV [GJD4, Q96KN9] | pKd (GRIP1_5, Q9Y3R0): below the threshold; pKd (MAGI2_3, Q86UL8): below the threshold; pKd (Inadl_3, Q8NI35): below the threshold; pKd (NHERF4_2, Q86UT5): below the threshold; pKd (GRIP2_6, Q9C0E4): below the threshold; pKd (MAGI1_1, Q96QZ7): below the threshold; pKd (HTRA1, Q92743): 4.38 |
| below the threshold | below the threshold | below the threshold | below the threshold | 3.74 | below the threshold | below the threshold | below the threshold | below the threshold | below the threshold | below the threshold | below the threshold | 4.36 | 4.02 | below the threshold | 3.85 | below the threshold | 3.84 | below the threshold | below the threshold | VDSTVKVWTC [TRAF7, Q6Q0C0] | pKd (GRIP1_5, Q9Y3R0): below the threshold; pKd (MAGI2_3, Q86UL8): below the threshold; pKd (Inadl_3, Q8NI35): 4.4; pKd (NHERF4_2, Q86UT5): below the threshold; pKd (GRIP2_6, Q9C0E4): 4.94; pKd (MAGI1_1, Q96QZ7): 3.62; pKd (HTRA1, Q92743): 5.61 |
